In experiment [1] the target is MtMce4A_(39–140) (Mycobacterium tuberculosis H37Rv). Briefly: crystal structure; native protein, 7.5 mg ml^−1; 100 mM sodium HEPES, 100 mM LiCl2, 20% PEG 400 pH 7.5, 22°C; space group P6_(5), 2.9 Å.
Experiment [2] shares this target. Briefly: SEC-MALS; in crystallization buffer (0.1 M MES, 0.7 M ammonium sulfate pH 6.0) after slow heating from 20 to 50°C (0.8°C per minute); supernatant on Superdex 200 10/300. For orientation: Size exclusion chromatography separates by hydrodynamic size, large species first.

Take MtMce4A_(39–140) (domain or fragment): the stoichiometry N in experiment [1] and in experiment [2] was 2 each time.

By stoichiometry N is commonly meant a count of units in the complex or per binding partner.

The values are drawn from PMC8420772.
